Source: the DeepSol protein solubility set

assay: soluble on expression in E. coli; label from the status in PepcDB or PDB records

| Sequence | soluble on expression in E. coli |
| --- | --- |
| MTAPGSMPLTVIGGFLGAGKTTLLNYLLKVQHSERVLVMVNDFGSINIDAELLDQGRHDRPGVVRLQNGCVCCSIGGDLMQAFLQVMSMPDRPDRIIVEASGVADPTRIAQIGRVSGGLSDEGVITLVDASAVRTLAADKYVGDIVRQQILSADIVLLNKLDLSSDAEIVETRAWLRDLAPRTRVVSCIHGEVDAVSVLGIGAGKVAPDAAGGPVDVPVPDLRRASTRHADTFHSSTLATAHRFDRRRIEYALDALPQTVLRGKGFVELEGEATPALLQLCGSRWTLDPVSTPAPPAGTHLVFIATGGRGVPRFDAPSHFEQALASRDAASADTSNLEHHHHHH | soluble |
| GAMGPREVTMKKGDILTLLNSTNKDWWKVEVNDRQGFVPAAYVKKLDSGTGKELVLALYDYQESGDNAPSYSPPPPP | soluble |
| EVQLQESGPSLVKPSQTLSLTCSVTGEPITSGFWDWIRKFPGNKLEFMGYIRYGGGTYYNPSLKSPISITRDTSKNHYYLQLNSVVTEDTATYYCARSRDYYGSSGFAFWGEGTLVTVSAAKTTPPSVYPLAPGCGDTTGSSVTLGCLVKGYFPESVTVTWNSGSLSSSVHTFPALLQSGLYTMSSSVTVPSSTWPSQTVTCSVAHPASSTTVDKKLE | soluble |
| RRKQQAPRRAAAYVSEELKAAALVDEGLDPEEHTADGEPSAKYMCPEKELARACPSYQNSPAAEFSCHEMDSESHISETSDRMADFESGSIKNEEETKEVTVPLEDTTVSDSLEQMKAVYNNFLSNSYWSNLNLNLHQPSSEKNNGSSSSSSSSSSSCGSGSFDWHQSAMAKTLQQVSQSRMLPEPSLFSTVQLYRQSSKLYGSIFTGASKFRCKDCSAAYDTLVELTVHMNETGHYRDDNHETDNNNPKRWSKPRKRSLLEMEGKEDAQKVLKCMYCGHSFESLQDLSVHMIKTKHYQKVPLKEPVTPVAAKIIPATRKKASLELELPSSPDSTGGTPKATISDTNDALQKNSNPYITPNNRYGHQNGASYAWHFEARKSQILKCMECGSSHDTLQELTAHMMVTGHFIKVTNSAMKKGKPIVETPVTPTITTLLDEKVQSVPLAATTFTSPSNTPASISPKLNVEVKKEVDKEKAVTDEKPKQKDKPGEEEEKCDISSKYHYLTENDLEESPKGGLDILKSLENTVTSAINKAQNGTPSWGGYPSIHAAYQLPNMMKLSLGSSGKSTPLKPMFGNSEIVSPTKNQTLVSPPSSQTSPMPKTNFHAMEELVKKVTEKVAKVEEKMKEPDGKLSPPKRATPSPCSSEVGEPIKMEASSDGGFRSQENSPSPPRDGCKDGSPLAEPVENGKELVKPLASSLSGSTAIITDHPPEQPFVNPLSALQSVMNIHLGKAAKPSLPALDPMSMLFKMSNSLAEKAAVATPPPLQSKKADHLDRYFYHVNNDQPIDLTKGKSDKGCSLGSVLLSPTSTAPATSSSTVTTAKTSAVVSFMSNSPLRENALSDISDMLKNLTESHTSKSSTPSSISEKSDIDGATLEEAEESTPAQKRKGRQSNWNPQHLLILQAQFAASLRQTSEGKYIMSDLSPQERMHISRFTGLSMTTISHWLANVKYQLRRTGGTKFLKNLDTGHPVFFCNDCASQIRTPSTYISHLESHLGFRLRDLSKLSTEQINSQIAQTKSPSEKMVTSSPEEDLGTSYQCKLCNRTFASKHAVKLHLSKTHGKSPEDHLLYVSELEKQ | soluble |
| SLVGTPNLLTLDEADATWTLIKDKVIEEHFGPNAVAVPFLSDAACYDLLGVLVKQSRPAHTRLALPGRQGRRALKPVGPLPSLLEQAGSEGAFAHCTREYSPNGRAERAYEETRMLDGQPCKIRLHMGDLRKKVAFLLLPPGQVSLQQTLPWLRSTHSIYVIYQVFSCSWLQLGLTSTAREPQLLRLLRSLPVAFSCLKFSLQSKGVLGPQKPLTKDPLPHGANWVRPNLSIMPPLAPTSASADTTEAADVPPPVPAPPTPPPQEGPEDKPTRFSYKGRNPFWRGPQILSENWLFSPRSPPPGAQGGGPRDPDGHSMSLPLLQGLSSEFDSDD | not soluble |
| MPPRMSVAPERALIDVDREIRIDGFGPYACIDVTAEMRMCGVPWRSRATFLAGADGSLDLGRDSPVSGDYAEPDAMGLVWSMQCQDPPRAVFPPDRTDALTVHITASDGRHEAHATLVQEFLAEGVRHQAVRARAGGMSLSGELYTPP | not soluble |
| MGSDKIHHHHHHMSAPTITTLGEFLQAGQAEYKIFDIGRCLTELSQEEFAAIEQQQRPYPYPIARQAQLAILFQHKQHDQQPFIWFLQFPLDERGLLNIAARNQYLEYVVNALGHEITGEMTEEQQKQLQQNPYLLTPNEQQRAALHARVQRQQKLSPSIHFETAEAYLKQPESGIDWQQMGLQGLHDCAARLEQLPELSKAIATHFSHYPSAVRQPLAVALEQQSLTPPVRDALLQNLESSNAQLCTDSLRALASASAHPRVKKAVNKLVPHANADQLVVIAARLWPVLCEEQNLLRYLDAIAELDNSLFDALFQDIIALPDIRPLLLSIIAQQKQSAAVNEALNRLKQQTQGS | not soluble |
| MKSEIIAVGTEILTGQIVNTNSQFLSEKFAELGIDVYFQTAVGDNEERLLSVLKIAKERSDLIVLCGGLGPTEDDLTKQTLAKFLKRELVFDKTAQERLDEFFASRPTSMRTPNNECQAQIIAGSQPLSNKTGLAVGGLLEADGVTYVVLPGPPSELKPMVNKELLPYLSKTSEKLYSRVLRFFGIGESHLVTLLHDLIAEQTDPTIAPYAKTGEVTIRLSTKAHRQKEADSKLDKLEKKIITIDNLADYFYGYGEENSLPQVVFDLLKEKGKTITAAESLTAGLFQARLADFAGASDIFKGGFITYSIEEKARMLGIPFEDLQLHGVVSAFTAEKMAERSRQLTQADLAISLTGVAGPDSLEGQPAGTVFIGLSSSKRTMAIKVLIGGRSRSDVRYIAVLHAFNLVRQTLLSHKNLV | soluble |
| MVREDRSTWKANYFTKLVELFEEYPKCLLVGVDNVGSKQMQEIRQAMRGHAEILMGKNTMIRKALRGHLGKNPSLEKLLPHIVENVGFVFTKEDLGEIRSKLLENRKGAPAKAGAIAPCDVKLPPQNTGMGPEKTSFFQALQIPTKIARGTIEILNDVHLIKEGDKVGASESALLNMLGVTPFSYGLVVRQVYDDGTLYTPEVLDMTTEELRKRFLSGVRNVASVSLAVNYPTLASVAHSLANGLQNMLGVAAVTDVSFKEAETIKAFIADPSKFAAAAPAAAAAPAAAAPAAKKEEPKEESDDDMGFGLFD | not soluble |
| EPPDGKAISDGFNLLQELSAVNRENQLTPLGRQLARLPVDPRMGRMLLEAAKQGSLQEVLIVASAMSVQDVRERPPERQQAADQAHAQWKDAD | not soluble |
| QIQLVQSGPELKKPGETVRISCKASDYSFMTSGMQWVQQMPGKGLKWIGWLNTQSGVPEYAEDFKGRFAFSLETSATTAYLQINNLKNEDTATYFCATWGGNSAYWGQGTTLTVSSAKTTPPSVYPLAPGSAAQTNSMVTLGCLVKGYFPEPVTVTWNSGSLSSGVHTFPAVLQSDLYTLSSSVTVPSSTWPSETVTCNVAHPASSTKVDKKIVPRDC | soluble |
| MPNYKLLYFDARALAEPIRIMFAMLNVPYEDYRVSVEEWSKLKPTTPFGQLPILQVDGEQFGQSMSITRYLARKFGLAGKTAEEEAYADSIVDQYRDFIFFFRQFTSSVFYGSDADHINKVRFEVVEPARDDFLAIINKFLAKSKSGFLVGDSLTWADIVIADNLTSLLKNGFLDFNKEKKLEEFYNKIHSIPEIKNYVATRKDSIV | not soluble |
| MGSDKIHHHHHHMTRTSPTHAKLAQPIVHAPGLFHSLAPGERKRDKLDVTHVAGDTTVRFVGFEPLDSTDLRVLQGLIALATAGLRNIRRLLRDGQSLRTSLDLKGDAQDERTVAARFTLASLADMAGFDRGGFGCRQMRASLQRLSNVTVLVDRPEFEGAFRLVSGYRLDKHTGELVVSISPLGTTAILGRQGYLRLNMDEVRRIHGEVAHLIHSRLHWVNQGDRRPVNMDTLCSYAYVGVRTGSALRKRRMAVRQALKELMDVGWTVTEKYPGTYLIGRPRRASDQGELVTRAGVNW | not soluble |
| VKLDDHTYQINGRVLLDDLNKKFGIEFEDSEDIDTIGGWLQSQNTNLQKDDFVDTEYDRWTITEIDNHQIIWVNLNYEFNSGRPSVNEEQEDDERD | not soluble |
| MSLKVIWTVTPVGYQRIAKRCPSCSVKRDFTPSGAFRVNSQKKVLDVWSIYKCTHCDYTWNISLFSRLPVSKINRDLYCRLMANDAATVQYFAYDNAILKRNNAELSGQPDFHIQERWLVSIASHKQVSVSVRISRSFQVSLLSILKKQLLLSAAEIKRRIETGQISGVTMKMLKSRKLKNAKYDLQLSVETLYDRRRIVLTCREGHHHHHH | soluble |
| MARINRISITLCALLFTTLPLTPMAHASKQARESSATTHITKKADKKKSTATTKKTQKTAKKAASKSTTKSKTASSVKKSSITASKNAKTRSKHTVNKTASASLTEKCTKRKGYKSHCVKVKNAASGTLADAHKAKVQKATKVAMNKLMQQIGKPYRWGGSSPRTGFDCSGLVYYAYKDLVKIRIPRTANEMYHLRDAAPIERSELKNGDLVFFRTQGRGTADHVGVYVGNGKFIQSPRTGQEIQITSLSEDYWQRHYVGARRVMTPKTLR | soluble |
| MSYSSQGVVEKGKVMPGDVLATIEEFLPGEGVYVDPVKGFIRAAAPGVAYLDMSRRIAYVKPHKKPQTPGPGSEVAALVTGVRGDLVVAEVYGVVRLSPKPAWLYELPSPYSAAIPISQIADEYIKNIEDYYRMGDWILAKIVSRTPPFTLSTVEPRYGVVYAICSRCGAVMEFQSERSMKCPKCGNVEKRKVSIHAKSRHLRIRLVRNLVIYRS | soluble |
| MAHHHHHHMPPQRQCSHCEKEKAVLKRPRNGKLLCQRCFFNLFEAEVHETIMKEKLFKPGDIVACGASGGKDSTVLIHLMKLLNEQHEYGIQLLLLSIDEGIAGYRDDSLKTVHRNAEVYNLPLRVLSYKELYGWTMDEVVKVTGLRSSCTYCGVFRRQALDRGAAMLGATKVVTGHNADDLAETILMNILRGDLPRLSRCTSAITSGESLLPRVKPLKYAYEKEIVLYAHFKKLDYFTTECTYSKEAFRSEARTLLKNIEILQPRCILDTIRTGEQLRVKEQECATENPPSACTRCGYVTSQSLCRACVLLQGLNMNGPAVCVREQPQPQQQQQQQNVEVEGQ | not soluble |
| EQEVSLDLILVEEYDSLIEKMSNWNFPIFELVEKMGEKSGRILSQVMYTLFQDTGLLEIFKIPTQQFMNYFRALENGYRDIPYHNRIHATDVLHAVWYLTTRPVPGLQQIHNGCGTGNETDSDGRINHGRIAYISSKSCSNPDESYGCLSSNIPALELMALYVAAAMHDYDHPGRTNAFLVATNAPQAVLYNDRSVLENHHAASAWNLYLSRPEYNFLLHLDHVEFKRFRFLVIEAILATDLKKHFDFLAEFNAKANDVNSNGIEWSNENDRLLVCQVCIKLADINGPAKVRDLHLKWTEGIVNEFYEQGDEEANLGLPISPFMDRSSPQLAKLQESFITHIVGPLCNSYDAAGLLPGQWLEAEEDNDTESGDDEDGEELDTEDEEMENNLNPKPPRRKSRRRIFCQLMHHLTENHKIWK | soluble |
| MDNLLNEKKLTIFTSNEIQDNLNRVLKDYEQNGIIGLNGYLNQANRISLLNELEIMQKDAEQDIARYWNNKIIHFYSKDPLKPESVDREYVTEPYFQASSNKAHVFYEVIDNMRVVNRIGHGMHLINRYPMMQRAVYDSPVLLDLLKGIGFKKPICHLSVYIPKYPNGIGSEVRPHQESTFAFTEPQSVVVLWVALEDALIENACMYGVLGSNHWPLKWVSKVDRETKTRHFEQVHQLHIPDFMTEREFYTALEVKAGDALLFHGNFVHCSPMNTSKNSRKALSFQFIETYEVDYPETNWLYPPNKVYLYLEHHHHHH | not soluble |
| MGSDKIHHHHHHMTRILVLYFTRGGHTAKIANAIAEQLTLRGAKVDLVDINSAAATRINWSDYQLVALGACVLYGTYDKSVFQFIEQHVQALSFLPNSFFCVNVVARNPEKRIPENNKYLQKFITLSPWTPADLKIIAGKVDYPSWPWYDRLMIQLIMKITKGPTDPKAVIDYTDWEDVKVYADHLLTLVEVAEPA | not soluble |
